Results taken from the RNAGym collection of RNA variant scans (doi:10.1073/pnas.2313332121).

B1: TPR t1 (parent)
chain: GACCAAUCUGCCCUCAGAGCUCGAGAACAUCUUCGGAUGCAGAGGAGGCAGGCUUCGGUGGCGCGAUAGCGCCAACGUCCUCAACCUCCAAUGCAUCCCACCACAUGAUGAUGCCUGAAGAGCCUUGGUUUUUUG

Variants of: B1
Experiment: polymerase ribozyme fitness, log enrichment relative to wild type (log ratio); higher = more active; in vitro selection for triplet polymerase activity
How it was run: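 Libraries of mutants in each subunit of a heterodimeric triplet polymerase ribozyme were generated by PCR and transcribed. In triplicate, each went through one in vitro selection round: annealing with biotinylated primer, partner subunit and triplets; frozen incubation at −7 °C; gel excision of extended constructs; streptavidin-bead capture; RT-PCR. Fitness, taken from Illumina sequencing of input and output libraries, is the logarithm of a genotype's enrichment over wild-type enrichment, averaged across replicates with inverse-variance weights. The logarithm is base 2, and genotypes needed ≥10 input reads and ≥1 read per output to be kept.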

| Variant | polymerase ribozyme fitness (log ratio) |
| --- | --- |
| C12A A46U C49U A95G C99U A111G U116A | -6.56 |
| C11U U78C U106G | -2.03 |
| C12A G57A G69C U106C | -2.99 |
| C11U G69C | -1.87 |
| C12U A26G C56U G69U G117A U125G | -4.97 |
| C12G C94G | -1.02 |
| C12A G17A A111U U116C | -6.09 |
| C12A U112C | 0.835 |
| C12G C86G C89G C104U | -1.35 |
| C12U C79A | -0.645 |
| C12U C79G | -1.07 |
| C12U A83U | 0.364 |
| C12A A18C G77C A121U | -0.381 |
| C12A C22A C40U G58C C86A U112G | -5.73 |
| C11U U78A C97A | -5.69 |
| C12G C15U G61A | -0.982 |
| C12U A50U C56G | -1.24 |
| C12U A84U U131G | -0.996 |
| C12G G48A G93A | -1.44 |
| C12G C70U U106A | 0.277 |
| C12G A46C G60U U109C | -6.49 |
| C12A C49A C82A | -1.3 |
| C12G C76U | -0.0382 |
| C12U C13U C70U G71C U96A U112G U131C | -4 |

| Variant | polymerase ribozyme fitness (log ratio) |
| --- | --- |
| C12A C53U C73A | -0.585 |
| C12A C88U G110C | -4.61 |
| C11U U87G G113U | -4.06 |
| C12G G47C C53U C56U G113A A118C | -5.05 |
| C12G C79A A91C | -2.84 |
| C12A C22A A26C G120U | -4.36 |
| C12G A27G G39C | -3.18 |
| C12G G51C G71A | -6.1 |
| C12A C20A G63C G113U C115U U131A | -3.61 |
| C12U C70A C88G U129C | -2.57 |
| C12A G61C | -2.46 |
| C12G C40U C97U | -1.01 |
| C12G A75U C94G | -1.33 |
| C12A C86A | -0.926 |
| C12U A50G C56A C85G | -1.73 |
| C12U C53A G58C C82G G128A | -2.46 |
| C12G A37C G60C A83U A91C G120U | -0.68 |
| C12G G48U C62U | -1 |
| C12A A46U C114U | -3.89 |
| C12U A103U | -4.81 |
| C12A A37G U132A | -1.37 |
| C12A G110A | -1.57 |
| C12U A75G U92A | -2.45 |
| C12U C15A A37C G52U U116G | -3.09 |

| Variant | polymerase ribozyme fitness (log ratio) |
| --- | --- |
| C12G G17A C62U C101U | -5.49 |
| C12G U21A G77C A84U | -1.73 |
| C12U A16U A66C A105C C124G | -5.31 |
| C12G G19A G93U U106A A111G C115A | -6.62 |
| C11U U129A | -2.36 |
| C12U A41C G60C G128C | -3.6 |
| C12A G19U G42U C70A U92A U112C U129G | -5.98 |
| C12A C20A G63A U87A G122U | -4.81 |
| C11U U14C U38G | -4.03 |
| C12U C53A G58C A119U | -0.505 |
| C12G C79A | -1.01 |
| C12A C15G C101U | -3.16 |
| C12G U33G C76A A100C C123G | -5.88 |
| C12U A83C G93A | -0.192 |
| C12A G57U C72U | -0.582 |
| C12G G45U C72A G127A | -2.17 |
| C12U A29U C56G U87G | -2.63 |
| C12U A18C C62U | -2.39 |
| C12U A50U U59G A119U | -0.98 |
| C11U U33A | -4.31 |
| C12U C28U C49U C82A | -3.01 |
| C12G C34U | -3.31 |
| C12G C34A | -2.33 |
| C11U G122A | -1.12 |

| Variant | polymerase ribozyme fitness (log ratio) |
| --- | --- |
| C12U C73A C97G C104U | -2.89 |
| C12A G71U G117C U126C | -6.35 |
| C12A A18G C40U | -4.84 |
| C12A A41U A43U C104U U129G | -4.67 |
| C12A U133A | -0.907 |
| C12U C62G U126A | -2.76 |
| C12U A26G G45A A84U U132C | -3.75 |
| C12G G117C U126G | -3.28 |
| C12G C64A U133A | -5.1 |
| C12A C72A | 0.329 |
| C12U A16U C22G U38G G52C A111U | -3.72 |
| C12U C72G C102A | -2.37 |
| C12G G65C U67G A95G A108U A119U C123U | -5.89 |
| C12A C28U C86U C88U C101A A111C | -7.09 |
| C12U A46C A75U | -0.187 |
| C12U C13U A43G G61A U130G | -2.17 |
| C12A C89U C101A A111U | -5.17 |
| C12G C98U U133G | -1.82 |
| C12G A46U C102A | -2.85 |
| C12G G36C A66U C85U C86A | -3.38 |
| C12U C72U G128U | -1.55 |
| C12U C20U A43U C72U C82A U112A C114G | -2.38 |
| C12A C15U G71U A121C G127U | 0.118 |
| C12A C40G C104U G128U | -3.15 |

| Variant | polymerase ribozyme fitness (log ratio) |
| --- | --- |
| C12U A46U | -0.688 |
| C12A C40U A111C U131A | -0.623 |
| C12U A29G U92C C94A | -3.95 |
| C12G C94G A105C | -4.19 |
| C12U C40U | -0.543 |
| C12A C88U U109A C114A U133C | -6.51 |
| C12U C73U U81G C82G C123A | 0.809 |
| C12G G48C G135U | -1.51 |
| C11U U96G | -1.1 |
| C12A C53U U78A U81G | -2.32 |
| C12A A16U C56A | -3.74 |
| C12A C99U | -3.06 |
| C11U U59A A91G A118U | -1.98 |
| C12U A18G A41U G47C U109G C124G | -2.39 |
| C12G A41U G44C C64U C82G G113U | -5.32 |
| C12G C115U U133A | -0.348 |
| C12A U92A | -3.47 |
| C12A C62A | -1.05 |
| C12U C28A C40U C73U | -4.89 |
| C12A G17U C20A G42A G45U A90G C123A | -4.53 |
| C12A A37C | -1.93 |
| C12A C40U C82G U96C C97U | -6.18 |
| C12G A26U C114A | -6.59 |
| C12A C70A U92A | -5.67 |

| Variant | polymerase ribozyme fitness (log ratio) |
| --- | --- |
| C12A G19C C85U A91U G122U | -3.66 |
| C12A G42C C73A C80U A118G | -3.44 |
| C12G C53U G93C | -0.482 |
| C12U C72G U112C | 1.25 |
| C12U C13U A18U C20G | -4.78 |
| C12G U14A A26U C72U A90G C123A | -2.58 |
| C12A C79A A111G | -2.24 |
| C12G A43U U92G C104A G117U A118U | -5.1 |
| C12U C20A A75C C114A G117U | -5.53 |
| C12G U59G A90G G113A | -2.53 |
| C12A A24G A41C A43C A46G C53G | -4.67 |
| C12G A26U G77A | -2.58 |
| C12U C53G | -0.45 |
| C12U A16U C20U G71C C114A G127U | -3.54 |
| C12A G117U | -1.72 |
| C12A G45U G51C G52U U59C C123G | -5.71 |
| C12G C15G G47C C82G | -4.81 |
| C12G A46U C82G | -1.75 |
| C12G G61C C104U C115G U133C | -5.69 |
| C12A G120U | 1.57 |
| C11U G71A | -1.53 |
| C12G A26C A27C G36U C97A C101U U109A | -7.51 |
| C12G A26U C34U G42U G44U C62G U96C U106A U109A C115G | -6.33 |
| C12A A27G C34G G61U A118C C123G | -8.42 |

| Variant | polymerase ribozyme fitness (log ratio) |
| --- | --- |
| C12A A26U G61A U131G | -4.35 |
| C12G C124G | 0.742 |
| C12U A18U A108U C114U A121C U129C | -6.88 |
| C12A G19U G57U | -3.2 |
| C12G G61U G120U | 2.2 |
| C12A C22G A27U | -4.16 |
| C12G C40U | -1.51 |
| C11U U54A | -0.542 |
| C12A A68G A84C | -4.19 |
| C12G C22U U32G G69U C72G C102A A111U G122U | -5.99 |
| C12U C34G C115G | -6.11 |
| C12A C20G A83G C85U A95G | -5.21 |
| C12U A46U G51U G69U A74U | -3.04 |
| C12A C15A A43G A50U G61U | -6.06 |
| C12A C15A C70A C72A G110U | -6.17 |
| C12G C13A A24G U106G C124A | -1.63 |
| C12A A26U A41C C82A A95G C101A G120A G127A | -5.86 |
| C12U A46C C53G C72U C73G A84C A95C | -5.01 |
| C12A C15A | -3.39 |
| C12G G42A | -1.36 |
| C12G U14C C62U C85U C86U | -1.07 |
| C12U A41U | -0.786 |
| C12A C70G C89A G110A U129A | -6.66 |
